T1: AGR2 deletion mutant lacking the epitope … (UniProt O95994 21-175)
T1 construct: Made from the pcDNA3-AGR2-His eukaryotic expression plasmid by deletion mutagenesis; also called the mutated AGR2 protein; not shown: His tag of the pcDNA3-AGR2-His plasmid
T1 sequence (looked up): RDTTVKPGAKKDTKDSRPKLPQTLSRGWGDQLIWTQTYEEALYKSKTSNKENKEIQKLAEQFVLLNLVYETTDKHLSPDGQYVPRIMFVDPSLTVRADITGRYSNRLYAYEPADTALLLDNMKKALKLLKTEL

T2: human anterior gradient protein 2 (AGR2) (human, UniProt O95994 21-175)
T2 chain: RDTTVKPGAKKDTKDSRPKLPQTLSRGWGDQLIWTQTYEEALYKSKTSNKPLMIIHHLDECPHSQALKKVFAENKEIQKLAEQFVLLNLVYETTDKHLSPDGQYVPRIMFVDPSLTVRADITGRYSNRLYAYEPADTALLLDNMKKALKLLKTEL

T3: human anterior gradient protein 2 (AGR2) (human, UniProt O95994 21-175, limits assumed)
T3 construct: also called hAG-2; antigen AGR2
T3 sequence (looked up): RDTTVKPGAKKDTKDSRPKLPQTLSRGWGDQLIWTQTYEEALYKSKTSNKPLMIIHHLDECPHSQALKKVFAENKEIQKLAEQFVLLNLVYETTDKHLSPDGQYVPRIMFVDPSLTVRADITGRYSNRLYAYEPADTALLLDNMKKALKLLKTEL


Key:
[1] = biological target: T1, AGR2 deletion mutant lacking the …; test: western blot
Protocol: The amino sequence of the monoclonal antibody corresponding to the epitopes of the antigen AGR2 was determined (see FIG. 23). The procedure was as followed: RNA was extracted from MCF cells. mRNA of AGR2 was obtained by PCR and reverse transcribed to obtain cDNA. The pcDNA3-AGR2-His eukaryotic expression plasmid was constructed and AGR2 was subjected to mutation by deletion. The upstream primer for the mutation was 5′-[…]-3′, and the downstream primer was 5′-[…]-3′. Such a mutation led to the deletion of the epitope […]. […] Then AGR2 was subjected to point mutation. The upstream primer for the mutation was 5′-[…]-3′, and the downstream primer was 5′-[…]-3′, wherein the “C” in the PDI active site “CXXS” was mutate to “S”. […] It was determined that the monoclonal antibody specifically bound to the epitope “[…]”, and may inhibit the PDI activity.

[2] = biological target: T2, human anterior gradient protein 2 (AGR2); test: competitive ELISA
[3] = biological target: T3, human anterior gradient protein 2 (AGR2); test: competitive ELISA, AGR2 coated, antibody pre-incubated with soluble antigen
Protocol: The generated humanized antibody 18A4Hu1 was subjected to an affinity analysis and compared with the murine 18A4 antibody. Specifically, 3 ng/μl antigen AGR2 was used for coating the 96 well ELISA plates at 100 μl per well and blocked with blocking solution. Antibodies at 0.1 ng/μl were mixed 1:1 with antigens of different concentrations and incubated at 37° C. overnight, wherein the antigen concentration was serially diluted from 1000 nM. 100 μl incubated mixture was separately added into different ELISA plates and incubated at 37° C. for 1 hour. After washing the ELISA plates, the HRP-labeled secondary antibodies against human or mouse were added and incubated at 37° C. for 1 hour. Color development solutions A and B were added, each at 80 μl, and color was allowed to develop at 37° C. for 30 min. The reaction was stopped by adding 50 μl stopping solution and absorbance was determined at OD 450. Affinity plate was depicted and the affinities of the antibodies were calculated.

| binding result [1] | Kd [2] [nM] | binding result [3] | Binder |
| --- | --- | --- | --- |
| no binding | 1.7 | – | murine anti-human AGR2 protein monoclonal antibody 18A4 (antibody, V domains shown, also called murine 18A4; the monoclonal antibody) VH: EVQLQQFGAELVKPGASVKISCKASAYTFTDYNMDWVKQSHGKSLEWIGDINPNYDTTSYNQKFKGKATLTVDKSSSTAYMELRSLTSEDTAVYYCARSMMGYGSPMDYWGQGTSVTVSS VL: DIVLTQSPASLTVSLGQRATISCRASKSVSTSGYSYMHWYQRKPGQPPKLLIYLASNLESGVPARFSGSGSGTDFTLNIHPVEGEDAATYYCQHIRELPRTFGGGTKLEIK |
| – | 3.02 | binds | humanized antibody 18A4Hu1 (antibody, V domains shown) VH: QVQLVQSGAEVKKPGASVKVSCKASGYTFTDYNMDWVRQAPGQGLEWIGDINPNYDTTSYNQKFKGKATLTVDKSTSTAYMELSSLRSEDTAVYYCARSMMGYGSPMDYWGQGTLVTVSS VL: EIVLTQSPATLSLSPGERATLSCRASKSVSTSGYSYMHWYQQKPGQAPRLLIYLASNLESGIPARFSGSGSGTDFTLTISRLEPEDFAVYYCQHIRELPRTFGGGTKLEIK |
